Experimental data: paper PMC9505826, “A Peptide Inhibitor of the Human Cytomegalovirus Core Nuclear Egress Complex” (Pharmaceuticals, 2022)

B1: Hook peptide (acetylated pUL53 hook peptide, residues 59-87) (peptide)
peptide: Ac-LTLHDLHDIFREHPELELKYLNMMKMAIT-NH2
notes: source: synthetic peptide (Fmoc solid-phase synthesis, HPLC purified)
B2: recombinant HCMV pUL50 (His-tagged) (natural protein)
chain: MEMNKVLHQDLVQATRRILKLGPSELRVTDAGLICKNPNYSVCDAMLKTDTVYCVEYLLSYWESRTDHVPCFIFKNTGCAVSLCCFVRAPVKLVSPARHVGEFNVLKVNESLIVTLKDIEEIKPSAYGVLTKCVVRKSNSASVFNIELIAFGPENEGEYENLLRELYAKKAASTS
notes: also called His-tagged pUL50

Experiments:
[1] = target: B2; assay: ELISA; competition: pUL53 (1 µg/mL) coated on Immulon plates; peptide in serial dilutions from 10 µM together with His-tagged pUL50 (0.78 µg/mL) for 2.5 h; detection with anti-His-HRP; 0.1 M phosphate buffer pH 7.2, 0.1% BSA, 0.01% Tween 20; details: both partners purified
[2] = target: T1, Fluo-NLS-CPP (fluoresceinylated; pUL53 NLS 18-27 joined to HIV-1 Tat 47-59) (human cytomegalovirus (HCMV) | human …); assay: fluorescence polarisation; 25 nM N-terminally fluoresceinylated peptide; recombinant pUL50 in two-fold serial dilutions from 20 µM; 0.1 M PB, 150 mM NaCl, 1 mM TCEP, pH 7.2, 0.01% Tween 20; details: both partners purified
T1 construct: also called Fluo-NLS-CPP peptide; source: synthetic peptide (Fmoc solid-phase synthesis, HPLC purified)

B1
IC50 [1]: 125 nM

B2
Kd [2]: > 10 µM
